Test results taken from article PMC3818340.

Columns and labels:
purified protein [1] = substrate: CC#CC(=O)C(=O)O; experiment: purified protein; type: biochemical, Pseudomonas pavonaceae; settings: 20 mM sodium phosphate buffer, pH 9.0, 24 °C
purified protein [2] = substrate: CC#CC(=O)C(=O)O; experiment: purified protein; type: biochemical, coryneform bacterium; settings: 20 mM sodium phosphate buffer, pH 9.0, 24 °C

| Protein | Km (purified protein [1]) | kcat (purified protein [1]) | kcat/Km (purified protein [1]) | Km (purified protein [2]) | kcat (purified protein [2]) | kcat/Km (purified protein [2]) |
| --- | --- | --- | --- | --- | --- | --- |
| Pp MSAD (Pseudomonas pavonaceae) (protein) PLLKFDIFYGRTDAQIKSLLDAAHGAMVDAFGVPANDRYQTVSQHRPGEMVLEDTGLGYGRSSAVVLLTVISRPRSEEQKVCFYKLLTGALERDCGISPDDVIVALVENSDADWSFGRGRAEFLTGDLV | 3000 ± 1200 µM | 3.4 ± 0.8 s⁻¹ | 1130 M⁻¹ s⁻¹ | – | – | – |
| FG41 MSAD (coryneform bacterium) (protein) PLIRIDLTSDRSREQRRAIADAVHDALVEVLAIPARDRFQILTAHDPSDIIAEDAGLGFQRSPSVVIIHVFTQAGRTIETKQRVFAAITESLAPIGVAGSDVFIAITENAPHDWSFGFGSAQYVTGELAIPATGAA | – | – | – | 7.3 ± 0.8 mM | 0.17 ± 0.01 s⁻¹ | 20 M⁻¹ s⁻¹ |
| FG41 MSAD (coryneform bacterium; Y123F) (protein) PLIRIDLTSDRSREQRRAIADAVHDALVEVLAIPARDRFQILTAHDPSDIIAEDAGLGFQRSPSVVIIHVFTQAGRTIETKQRVFAAITESLAPIGVAGSDVFIAITENAPHDWSFGFGSAQFVTGELAIPATGAA | – | – | – | 21 ± 5 mM | 0.7 ± 0.1 s⁻¹ | 30 M⁻¹ s⁻¹ |
| FG41 MSAD (coryneform bacterium; Q73R) (protein) PLIRIDLTSDRSREQRRAIADAVHDALVEVLAIPARDRFQILTAHDPSDIIAEDAGLGFQRSPSVVIIHVFTRAGRTIETKQRVFAAITESLAPIGVAGSDVFIAITENAPHDWSFGFGSAQYVTGELAIPATGAA | – | – | – | 6.6 ± 1.5 mM | 1.2 ± 0.2 s⁻¹ | 180 M⁻¹ s⁻¹ |
